In patent US20210388110A1 (published 2021):
Where a chain is given by its changes, count along the chain named.

B1: H0610-G1dh/none-Hi-kn010G3/L0137-k0 (antibody, human IgG1, kappa)
heavy: not shown
chain: EPKSSDKTHTCPPCPAPELLGGPSVFLFPPKPKDTLMISRTPEVTCVVVDVSHEDPEVKFNWYVDGVEVHNAKTKPREEQYNSTYRVVSVLTVLHQDWLNGKEYKCKVSNKALPAPIEKTISKAKGQPREPQVCTLPPSRDELTKNQVSLWCLVKGFYPSDIAVEWESNGQPENNYKTTPPVLDSDGSFFLYSKLTVDKSRWQQGNVFSCSVMHEALHNRYTQKSLSLSP
light: DIVMTQSPLSLPVTPGEPASISCRSSQSLVHSNRNTYLHWYQQKPGQAPRLLIYKVSNRFGGVPDRFSGSGSGTDFTLKISRVEAEDVGVYYCGQGTQVPYTFGQGTKLEIKRTVAAPSVFIFPPSDEQLKSGTASVVCLLNNFYPREAKVQWKVDNALQSGNSQESVTEQDSKDSTYSLSSTLTLSKADYEKHKVYACEVTHQGLSSPVTKSFNRGEC
notes: single-arm antibody
B2: H0610-G1dh/none-Hi-Kn010G3/L0132-k0 (antibody, human IgG1, kappa)
heavy: not shown
chain: B1 chain
light: B1 light with F60V, G61S
notes: single-arm antibody
B3: H0610-G1dh/none-Hi-Kn010G3/TR01L003-k0 (antibody, human IgG1, kappa)
heavy: not shown
chain: B1 chain
light: B1 light with G61S, L109V, K112E
notes: single-arm antibody
B4: H0610-G1dh/none-Hi-Kn010G3/L0129-k0 (antibody, human IgG1, kappa)
heavy: not shown
chain: B1 chain
light: B1 light with F60R, G61S
notes: single-arm antibody
B5: GCH054-G1dh/none-Hi-Kn010G3/L0011-k0 (antibody, human IgG1, kappa)
heavy: not shown
chain: B1 chain
light: B1 light with S28P, G61S
notes: single-arm antibody
B6: H0610-G1dh/none-Hi-Kn010G3/L0147-k0 (antibody, human IgG1, kappa)
heavy: not shown
chain: B1 chain
light: B1 light with G61V
notes: single-arm antibody
B7: H0610-G1dh/none-Hi-Kn010G3/L0136-k0 (antibody, human IgG1, kappa)
heavy: not shown
chain: B1 chain
light: B1 light with G61F
notes: single-arm antibody
B8: H0610-G1dh/none-Hi-Kn010G3/L0144-k0 (antibody, human IgG1, kappa)
heavy: not shown
chain: B1 chain
light: B1 light with G61Q
notes: single-arm antibody
B9: H0610-G1dh/none-Hi-Kn010G3/L0180-k0 (antibody, human IgG1, kappa)
heavy: not shown
chain: B1 chain
light: B1 light with G61S, V99N
notes: single-arm antibody
B10: H0610-G1dh/none-Hi-Kn010G3/L0232-k0 (antibody, human IgG1, kappa)
heavy: not shown
chain: B1 chain
light: B1 light with Q27E, G61S
notes: single-arm antibody
B11: H0610-G1dh/none-Hi-kn010G3/L0106-k0 (antibody, human IgG1, kappa)
heavy: not shown
chain: B1 chain
light: B1 light with N58H, G61S
notes: single-arm antibody
B12: H0610-G1dh/none-Hi-Kn010G3/L0139-k0 (antibody, human IgG1, kappa)
heavy: not shown
chain: B1 chain
light: B1 light with G61I
notes: single-arm antibody
B13: H0610-G1dh/none-Hi-Kn010G3/L0123-k0 (antibody, human IgG1, kappa)
heavy: not shown
chain: B1 chain
light: B1 light with F60K, G61S
notes: single-arm antibody
B14: H0610-G1dh/none-Hi-Kn010G3/L0126-k0 (antibody, human IgG1, kappa)
heavy: not shown
chain: B1 chain
light: B1 light with F60N, G61S
notes: single-arm antibody
B15: H0610-G1dh/none-Hi-Kn010G3/TR01L005-k0 (antibody, human IgG1, kappa)
heavy: not shown
chain: B1 chain
light: B1 light with Q42L, A48S, R50Q, G61S, L109V, K112E
notes: single-arm antibody
B16: H0610-G1dh/none-Hi-Kn010G3/L0187-k0 (antibody, human IgG1, kappa)
heavy: not shown
chain: B1 chain
light: B1 light with G61S, V99Y
notes: single-arm antibody
B17: H0610-G1dh/none-Hi-Kn010G3/L0117-k0 (antibody, human IgG1, kappa)
heavy: not shown
chain: B1 chain
light: B1 light with F60A, G61S
notes: single-arm antibody
B18: H0610-G1dh/none-Hi-Kn010G3/L0138-k0 (antibody, human IgG1, kappa)
heavy: not shown
chain: B1 chain
light: B1 light with G61H
notes: single-arm antibody
B19: H0610-G1dh/none-Hi-Kn010G3/L0000-k0 (antibody, human IgG1, kappa)
heavy: not shown
chain: B1 chain
light: B1 light with G61S
notes: single-arm antibody
B20: GCH094-G1dh/none-Hi-Kn010G3/L0011-k0 (antibody, human IgG1, kappa)
heavy: not shown
chain: B1 chain
light: B1 light with S28P, G61S
notes: single-arm antibody
B21: GCH065-G1dh/none-Hi-Kn010G3/L0011-k0 (antibody, human IgG1, kappa)
heavy: not shown
chain: B1 chain
light: B1 light with S28P, G61S
notes: single-arm antibody

The binders below were run against T1, soluble human GPC3 (human, UniProt P51654 25-563, limits assumed) (assay: SPR (Biacore), single-arm antibody, soluble human GPC3).
T1 construct: also called glypican 3
T1 sequence (P51654 other isoform, or with tags, fused parts or gaps limits assumed, form in doubt): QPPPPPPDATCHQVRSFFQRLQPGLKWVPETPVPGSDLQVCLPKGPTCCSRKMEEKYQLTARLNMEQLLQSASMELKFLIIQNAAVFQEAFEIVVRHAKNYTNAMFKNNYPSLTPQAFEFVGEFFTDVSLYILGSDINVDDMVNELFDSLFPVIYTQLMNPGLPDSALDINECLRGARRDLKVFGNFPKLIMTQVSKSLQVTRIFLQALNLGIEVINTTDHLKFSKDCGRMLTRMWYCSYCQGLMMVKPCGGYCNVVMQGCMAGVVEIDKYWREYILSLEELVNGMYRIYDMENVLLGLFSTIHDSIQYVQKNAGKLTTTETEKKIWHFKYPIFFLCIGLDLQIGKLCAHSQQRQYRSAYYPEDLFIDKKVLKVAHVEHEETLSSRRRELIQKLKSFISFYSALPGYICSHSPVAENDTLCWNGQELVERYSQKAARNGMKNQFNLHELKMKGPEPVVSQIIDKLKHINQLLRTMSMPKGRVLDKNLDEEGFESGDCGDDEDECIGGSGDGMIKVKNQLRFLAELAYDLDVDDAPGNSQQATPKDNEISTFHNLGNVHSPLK

Kd [nM]	Binder
5.87	B1
5.65	B2
5.08	B3
5.28	B4
5.25	B5
4.38	B6
5.04	B7
4.84	B8
4.48	B9
5.38	B10
5.66	B11
4.78	B12
5.08	B13
5.62	B14
5.37	B15
4.92	B16
4.92	B17
5.24	B18

Target: T1, soluble human GPC3
Test: as above
Remark: another data set of the same source

Kd [nM]	Binder
4.16	B19
5.25	B5
4.54	B20
0.884	B21
